We go through three substances from patent US20250051417A1.

The target of assay [1] is biotinylated Monomer MHC (HLA-A* 02:01 SLC45A2 (Biolegend, Custom Product, … (SEQ ID NO: 2)) (human)). Description: flow cytometry of stained beads, calibrated; divided by the bead surface area.
The target is the same in assay [2]. Description: flow cytometry of stained beads, calibrated; divided by the nominal bead surface area. For orientation: Flow cytometry measures light scatter and fluorescence of single cells or particles in a stream.
Assay [3] has as its target costimulation antibodies on the antigen presenting beads (biotinylated anti-CD28 and biotinylated anti-CD2). Description: flow cytometry of stained beads, calibrated; divided by the bead surface area.
Assay [4] shares this target. Description: flow cytometry of stained beads, calibrated; divided by the nominal bead surface area.
For assay [5] the target is unchanged. Description: flow cytometry of stained beads, APC intensity calibrated with Quantum Simply Cellular beads; assumes 1 detection antibody per costimulation antibody.
In assay [6] the target is Biotinylated peptide-Human Leukocyte Antigen complexes (pMHC). The assay can be described thus: flow cytometry of stained beads, APC MFI calibrated with Quantum Simply Cellular beads; silica bead.
Assay [7] has the same target. The assay can be described thus: flow cytometry of stained beads, APC MFI calibrated with Quantum Simply Cellular beads; polymeric bead.

Turning to “APC-conjugated anti-HLA-A (Biolegend, Catalog Number 343308) (antibody)”, the pMHC Density (molecules/sq micron) came out at 14800 in assay [1] and 19800 in assay [2].
Turning to “APC-conjugated monoclonal anti-Mouse-IgG1 (Biolegend, Catalog Number 406610) (antibody)”, the Costimulation Antibody Density (molecules/sq micron) in assay [3] amounted to 15600; in assay [4], 17300. The Costimulation antibodies/bead (anti-Mouse IgG1 antibodies bound per bead) (antibodies/bead) in assay [5] (M-280 convoluted polymer beads) was found to be 427000; in assay [5] (substantially spherical silica beads) it was 845000.
Regarding “anti-HLA-A conjugated to APC (Clone BB7.2, Biolegend) (antibody)”, the values for the Ligands/Bead (detection antibodies bound per bead) in assay [6] and in assay [7] were 604000 Ligands/Bead and 487000 Ligands/Bead, respectively. Besides, the Ligands/sq um (Ligands/sq um) worked out at 12000 in assay [6] and 19800 in assay [7].
